Test results: the nanobody polyreactivity screen of Harvey et al. (2022)

assay: yeast display, Sf9 membrane polyspecificity reagent, FACS + sequencing; frameworks hold sequencing errors
Method in brief: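 Galactose induction of a Saccharomyces cerevisiae BJ5465 synthetic nanobody display library ran 36–48 hours. The cells were then stained for 1 hour at 4 °C with 10% biotinylated, detergent-solubilized Sf9 membrane reagent, pulled down on streptavidin microbeads and FACS-sorted into low and high (top ~1%) gates on expression and reagent-binding fluorescence. Labels for polyreactivity follow the gate of origin.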

Sequence | polyreactivity (PSR sort gate)
QVQLVESGGGLVQAGGSLRLSCAASGRIFYSNDLGWYRQAPGKERELVAAITSSGASTYYADSVKGRFTISRDNEKNTVYLQMNSLKPEDTAVYYCNVDIGVYAYESDYWGQGTQVTVSS | low polyreactivity
QVQLVESGGGLVQAGGSLRLSCAASGRIFYSYAMGWYRQAPGKEREFVAAIRWSGGRTYYADSVKGRFTISRDNAKNTVYLQMNSLKPEDTAVYYCAAELYGNNFWDGTTGYDYWGQGTEVTVSS | low polyreactivity
QVQLVESGGGLVQAGGSLRLSCAASGRIFYSYAMGWYRQAPGKERELVAAISRSGGRTYYADSVKGRFTISRDNAKNTVYLQMNSLKPEDTAVYYCNAYRPRFSTRVDYWGQGTQVTVSS | high polyreactivity
QVQLVESGGGLVQAGGSLRLSCAASGRIFYTKTMGWYRQAPGNEWELVAAIRSGTRTDYADSVKGRFTISRDNAKKTVYLQMNSLKPYDTAVSYCNKAAGVTGRYYYWGQGTQVTVSS | low polyreactivity
QVQLVESGGGLVQAGGSLRLSCAASGRIFYTNAMGWYRQAPGKERELVATISLRGGSTYYADSVKGRFTISRDNAKNTVYLQLNSLKPEDTAVYDCAARFWSVYSGNPTYPKYYWGQGTQVTVSS | high polyreactivity
QVQLVESGGGLVQAGGSLRLSCAASGRIFYTNGMGWYRQAPGKERELVAAITYSGGNTFYADSVKGRFTISRDNSKNTVYLQMNSLKPEDTAVYYCAATFTYLGYWYDYRGQGTQVTVSS | low polyreactivity
QVQLVESGGGLVQAGGSLRLSCAASGRIFYTYAMGRYRQAPGKERELVAVISSGGSTNYADSVKGRFTISRDTAKNNVYLQMNSLKPEDTAVYYCNADTGAADYFDFDYWGQGTQVTVSS | low polyreactivity
QVQLVESGGGLVQAGGSLRLSCAASGRIFYTYVMGWYRQAPGKERELVAAINRSGGTTYYADSVKGRFTISRDNAKNTGYLPMNSLKPEDTAVYYCNATLPDYWPYYYYQGGDDYWGQGTQVTVSS | low polyreactivity
QVQLVESGGGLVQAGGSLRLSCAASGRIFYVYAMGWYIKAPGKERELVAAITSSGGRTNYADSVKGRFTISRDNAKNTVYLQMNSLKPEDTAVYYCAAAYPWGDYGVSDYDYWGQGTQVTVSS | low polyreactivity
QVQLVESGGGLVQAGGSLRLSCAASGRIFYVYAMGWYRQAPGKERELVAAINWRGGSTYYADSVKGRFPISRDNAKNTVYLQMNSLKPEDTAVYYCAARWYLYDYWGQGTQVTVSS | low polyreactivity
QVQLVESGGGLVQAGGSLRLSCAASGRIFYVYTMGWYRQAPGKERELVAAISWSGGSTHYADSVKGRFTISRDNAKNTVYLQMNSLKPEDTAGYYCNKGVVSRVAFEYWGQGTQLTVSS | low polyreactivity
QVQLVESGGGLVQAGGSLRLSCAASGRIFYWNVMGWYRQAPGKERELVAAISSSGASTSYADSEKGRFTISRDNEKNTVYLQMNSLKPEVTAGYYCDARTRRNYRQYNYWGQATQVTVSS | high polyreactivity
QVQLVESGGGLVQAGGSLRLSCAASGRIFYWYAMGWYRQAPGKERELVAAISSAGTTYYADSVKGRFTISRDNAKNTVYLQMNSLKPEDTAVYYCAATLGFYRRSEYDYWGQGTQVTVSS | high polyreactivity
QVQLVESGGGLVQAGGSLRLSCAASGRIFYWYAMGWYRQAPGKERELVATINSGGSTTYADSVKGRFTISRDNAKNTVYLQMNSLKPEDTAVYYCARQRTVKKYYYWGQGTQVTVSS | high polyreactivity
QVQLVESGGGLVQAGGSLRLSCAASGRIFYWYTMGWYRQAPGKERELVASISGSGGSTYYADSVKGRFTISRDNAKNTVYLQMNSLKPEDTAVYYCNKGSRWLRGLDYWGQGTQVTVSS | high polyreactivity
QVQLVESGGGLVQAGGSLRLSCAASGRIFYWYVMGWYIQAPGKERELVATIRYSGGNTYYADSVKGRFTISRDNAKNTVYLQMNSLKPEDTAVYYCAAGSLYWGRSPTRGGQGGYWGQGTQVTVSS | high polyreactivity
